Experiments:
[1] = molecular target: SARS-CoV-2 spike glycoprotein S1 subunit (SARS-CoV-2, UniProt P0DTC2 14-685); experiment: BLI
[2] = molecular target: SARS-CoV-2 spike glycoprotein receptor-binding domain (SARS-CoV-2, UniProt P0DTC2 319-541); experiment: BLI

B1: angiotensin-converting enzyme 2 (ACE2) protein, purified (receptor)
chain: QSTIEEQAKTFLDKFNHEAEDLFYQSSLASWNYNTNITEENVQNMNNAGEKWSAFLKEQSTLAQMYPLQEIQNLTVKLQLQALQQNGSSVLSEDKSKRLNTILNTMSTIYSTGKVCNPNNPQECLLLDPGLNEIMEKSLDYNERLWAWEGWRSEVGKQLRPLYEEYVVLKNEMARANHYKDYGDYWRGNYEVNGVDGYDYNRDQLIEDVERTFEEIKPLYEHLHAYVRAKLMNAYPSYISPTGCLPAHLLGDMWGRFWTNLYSLTVPFGQKPNIDVTDAMVNQAWNAQRIFKEAEKFFVSVGLPNMTQGFWENSMLTDPGNVQKVVCHPTAWDLGKGDFRIIMCTKVTMDDFLTAHHEMGHIQYDMAYAAQPFLLRNGANEGFHEAVGEIMSLSAATPKHLKSIGLLSPDFQEDNETEINFLLKQALTIVGTLPFTYMLEKWRWMVFKGEIPKDQWMKKWWEMKREIVGVVEPVPHDETYCDPASLFHVSNDYSFIRYYTRTLYQFQFQEALCQAAKHEGPLHKCDISNSTEAGQKLLNMLKLGKSEPWTLALENVVGAKNMNVRPLLNYFEPLFTWLKDQNKNSFVGWSTDWSPYADQSIKVRISLKSALGDKAYEWNDNEMYLFRSSVAYAMRTYFLEIKHQTILFGEEDVRVADLKPRISFNFYVTAPKNVSDIIPRTEVEEAIRISRSRINDAFRLNDNSLEFLGIQTTLAPPYQSPVT
For B1, the Kd [1] was 146 nM and the Kd [2] was 149 nM.

— paper PMC7486399 (2020)
